From US12122842 (R AND D SYSTEMS, dated 2024)

What was measured:
[1] = target: T1, recombinant human CD30 protein (UniProt P28908 19-385); test: SPR
T1 chain: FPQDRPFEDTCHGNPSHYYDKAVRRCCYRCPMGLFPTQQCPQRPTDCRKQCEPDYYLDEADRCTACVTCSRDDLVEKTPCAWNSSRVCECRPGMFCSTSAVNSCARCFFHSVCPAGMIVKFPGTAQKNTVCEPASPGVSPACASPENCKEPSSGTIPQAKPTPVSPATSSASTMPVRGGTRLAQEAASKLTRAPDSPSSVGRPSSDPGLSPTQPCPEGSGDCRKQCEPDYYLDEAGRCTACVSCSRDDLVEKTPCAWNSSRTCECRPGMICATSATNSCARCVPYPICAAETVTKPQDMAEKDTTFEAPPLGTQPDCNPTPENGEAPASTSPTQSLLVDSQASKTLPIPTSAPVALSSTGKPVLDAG

[2] = target: T2, human CD30/TNFRSF8 on Jurkat human acute T cell leukemia cells (Clone E6-1) (human, UniProt P28908 19-595); test: flow cytometry on Jurkat cells, PE anti-mouse IgG secondary
T2 construct: Endogenous CD30 on Jurkat cells; also called hCD30; hCD30/TNFRSF8
T2 sequence: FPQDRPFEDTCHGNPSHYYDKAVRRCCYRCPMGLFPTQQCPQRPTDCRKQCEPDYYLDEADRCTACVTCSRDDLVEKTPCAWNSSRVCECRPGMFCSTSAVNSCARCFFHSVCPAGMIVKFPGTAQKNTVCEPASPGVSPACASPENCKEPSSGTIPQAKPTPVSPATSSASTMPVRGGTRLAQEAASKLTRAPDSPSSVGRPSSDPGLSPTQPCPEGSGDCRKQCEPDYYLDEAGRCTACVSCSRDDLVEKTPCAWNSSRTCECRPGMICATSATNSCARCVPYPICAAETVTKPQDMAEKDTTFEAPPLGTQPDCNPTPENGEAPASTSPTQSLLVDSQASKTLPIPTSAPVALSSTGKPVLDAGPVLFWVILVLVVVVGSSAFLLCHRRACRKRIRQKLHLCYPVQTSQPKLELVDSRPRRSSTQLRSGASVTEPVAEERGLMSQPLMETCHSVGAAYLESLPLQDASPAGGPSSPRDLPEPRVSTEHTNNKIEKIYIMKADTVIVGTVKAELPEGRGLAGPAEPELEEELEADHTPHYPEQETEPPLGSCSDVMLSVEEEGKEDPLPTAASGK
Protocol: Jurkat human acute T cell leukemia cell line (Clone E6-1, ATCC Catalog #TIB-152) was stained with Mouse Anti-Human CD30 Monoclonal Antibody (Clone 81316.11, filled histogram) or isotype control antibody (Catalog #MAB002, open histogram), followed by Phycoerythrin-conjugated Anti-Mouse IgG Secondary Antibody (Catalog #F0102B).
Jurkat cells were harvested and washed two times in 2 mL of 1x flow staining buffer (FC001). The cells were resuspended in 1x flow staining buffer to a concentration of ~1.0×10⁶ cells/mL. About 90 µL of the cell suspension was added to each flow tube. About 10 µL of either 25 µg/mL Msxh CD30 or MsIgG1 was added to the appropriate tube, and the tubes were vortexed and then incubated for 20 minutes at room temperature. Cells were washed two times in 2 mL of 1× flow staining buffer. About 10 µL of goat anti-Mouse IgG PE secondary antibody was added to each tube, vortexed, and then incubated in the dark for 20 minutes at room temperature. Cells were washed two times in 2 mL of 1× flow staining buffer. 100 µL of 2× Sytox Blue Dead Cell Stain (ThermoFisher, S34857) was added and the cells were analyzed by flow cytometry.

Kd [1]: 5.1 nM
binding result [2]: binds
B1: Mouse Anti-Human CD30 Monoclonal Antibody (Clone 81316.11) (antibody, V domains shown)
VH: QVQLKESGPGLVAPSQSLSITCTVSGFSLTSYGVHWVRQPPGKGLEWLGVIWAGETINYNLALMSRLSISKDNSKSQVFLKMNSLQTEDTAMYYCARDQGEYGNYGWYFDVWGAGTTVTVSS
VL: DIQMTQTTSSLSASLGDRVTISCSASQGISNYLNWYQQKPDGTVKLLIYYTSSLHSGVPSRFSGSGSGTDYSLTISNLEPEDIATYYCQHYSKLPPTFGGGTKLEIKR
notes: It is a mouse monoclonal, and the isotype control used beside it is MsIgG1; also called anti-hCD30 antibody; recombinant hCD30 antibody
